Target: recombinant human HIS-tagged CFP (human, UniProt P27918 28-469)
Assay: SPR

Sequence of recombinant human HIS-tagged CFP (P27918 28-469): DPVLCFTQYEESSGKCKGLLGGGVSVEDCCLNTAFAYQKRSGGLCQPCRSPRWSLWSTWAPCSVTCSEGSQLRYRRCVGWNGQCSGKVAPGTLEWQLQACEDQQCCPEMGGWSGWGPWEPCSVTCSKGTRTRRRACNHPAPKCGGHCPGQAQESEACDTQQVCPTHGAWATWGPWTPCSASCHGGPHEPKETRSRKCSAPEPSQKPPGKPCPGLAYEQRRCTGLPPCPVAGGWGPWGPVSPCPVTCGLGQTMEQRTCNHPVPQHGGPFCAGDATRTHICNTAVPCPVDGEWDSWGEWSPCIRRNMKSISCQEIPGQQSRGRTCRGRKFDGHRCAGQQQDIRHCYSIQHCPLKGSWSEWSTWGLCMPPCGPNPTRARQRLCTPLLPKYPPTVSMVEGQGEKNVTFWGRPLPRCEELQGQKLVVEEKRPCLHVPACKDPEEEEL

B1: mouse NKp46-Fc (Fc fusion)
chain: QRINTEKETLPKPIIWAKPSIMVTNGNSVNIWCQGAQSASEYQLYFEGSFFALERPKPSRSMNKVRFFISQMTSHTAGIYTCFYQSGELWSKSSNPLKLVVTGLYDTPNLWVYPQPEVTLGENVTFFCQLKTATSKFFLLKERGSNHIQNKYGNIQAEFPMGPVTRAHRGTYRCFGSYNDYAWSFPSEPVTLLITGGVENSSLAPTDPTSSLDYWEFDLSTNESGLQKDSAFWDHTTQN
Q: Does B1 bind?
A: binds

Reference: publication PMC5419422 (Science immunology, 2017)
